The target in assay [1] is GST-HK10_(544–563), GST fusion of the human K10 C-terminal tail region (UniProt P13645). The assay is described as follows: ELISA. Particulars: value read at the highest concentration, 20 µM protein added; immobilized K10 (panel title GST-HK10 544-563) coated in bicarbonate buffer overnight; parent: est. 1.2; read off a plot.
Assay [2] has as its target Human fibrinogen, P02671-2;P02675;P02679-2. The assay is described as follows: ELISA. Particulars: value read at the highest concentration, 16 µM protein added; immobilized human Fbg coated in bicarbonate buffer overnight; parent: est. 1.5; read off a plot.
A further assay concerns the target Human plasma fibronectin. The assay is described as follows: ELISA. Particulars: value read at the highest concentration, 20 µM protein added; immobilized Fn coated in bicarbonate buffer overnight; parent: est. 1.7; read off a plot.
For assay [3], the target named is α-elastin, a heterogeneous mixture of soluble peptides obtained from human lung. The assay is described as follows: ELISA. The conditions noted are these: value read at the highest concentration, 20 µM protein added; immobilized α-elastin coated in bicarbonate buffer overnight; parent: est. 1.8; read off a plot.
The target of assay [4] is GST-HK10_(544–563), GST fusion of the human K10 C-terminal tail region (UniProt P13645). The experiment in a line: SPR; BIAcore X, 25°C; GST-HK10(544–563) (500 nM) captured on immobilised goat anti-GST IgG, GST alone on the reference cell; SpsD passed over in increasing concentrations, 5 µl/min; KD from equilibrium response.
The target in assay [5] is Mouse cytokeratin 10 C-terminal tail region (MK10_(454–570)) (mouse) (UniProt P02535). The assay is described as follows: ELISA; mouse K10 proteins, GST-HK10(544–563) or GST coated on wells; increasing concentrations of SpsD167–519; detected with anti-SpsD37–519 IgG.
The target in assay [6] is Mouse cytokeratin 10 (residues 1–570) (mouse) (UniProt P02535). The assay is described as above.
Assay [7] addresses N-terminal fragment of fibronectin (N29) containing the five N-terminal type I modules (human). The assay is described as follows: ELISA; Fn (1 µg/well) and Fn fragments (250 ng/well) coated; SpsD167–519 in solution, detected with anti-SpsD37–519 antibody; FnBPB163–480 as control, detected with anti-FnBPB163–480 IgG.
For assay [8], the target named is Recombinant fibronectin fragment, residues 1266–1908 (extra domain B plus type III modules 8–13 and the initial region of module 14) (UniProt P02751). The assay is described as above.
For assay [9], the target named is α-elastin, a heterogeneous mixture of soluble peptides obtained from human lung (human). The assay is described as follows: SPR; BIAcore X, 25°C; ligand covalently immobilised on CM5 chip; SpsD passed over in increasing concentrations without regeneration, 5 µl/min, PBS with 0.005% Tween 20; KD from equilibrium response against concentration.
The target in assay [10] is Human plasma fibronectin (human). Described as above.
Assay [11] has as its target Canine fibrinogen (canine) (UniProt P68213). The description is as above.
The target in a further assay is Human fibrinogen (human) (UniProt P02671). The description is as above.
Assay [12] addresses GST-Fbgγ_(395–411), GST fusion of the human Fbg γ-chain sequence (human) (UniProt P02679). The experiment in a line: ELISA; GST-Fbg γ chain or GST coated on microtiter wells; increasing concentrations of SpsD167–519; detected with anti-6-His IgG.

Sequence of GST-HK10_(544–563), GST fusion of the human K10 C-terminal tail region (P13645 544-563): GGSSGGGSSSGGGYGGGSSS
Sequence of Human fibrinogen (human) (P02671 other isoform, or with tags, fused parts or gaps, chain 1 of 3): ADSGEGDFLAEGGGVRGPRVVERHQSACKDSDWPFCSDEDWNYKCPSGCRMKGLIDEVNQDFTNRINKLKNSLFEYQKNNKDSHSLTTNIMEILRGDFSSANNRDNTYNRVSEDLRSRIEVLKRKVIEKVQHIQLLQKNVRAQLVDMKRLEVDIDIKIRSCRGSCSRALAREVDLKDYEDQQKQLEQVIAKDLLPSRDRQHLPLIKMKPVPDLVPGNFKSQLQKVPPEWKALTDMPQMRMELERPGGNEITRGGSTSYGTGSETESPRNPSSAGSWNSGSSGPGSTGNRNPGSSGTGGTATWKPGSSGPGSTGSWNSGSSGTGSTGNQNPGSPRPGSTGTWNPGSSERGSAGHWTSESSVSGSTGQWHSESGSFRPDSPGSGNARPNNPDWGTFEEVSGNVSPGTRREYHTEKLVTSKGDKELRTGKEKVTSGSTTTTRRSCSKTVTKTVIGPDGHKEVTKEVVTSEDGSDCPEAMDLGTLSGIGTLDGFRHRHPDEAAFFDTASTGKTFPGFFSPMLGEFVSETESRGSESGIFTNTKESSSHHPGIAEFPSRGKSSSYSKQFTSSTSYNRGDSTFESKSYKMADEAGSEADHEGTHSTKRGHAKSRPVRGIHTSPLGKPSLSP
Sequence of Human fibrinogen (human) (P02675 31-491, chain 2 of 3, further chain): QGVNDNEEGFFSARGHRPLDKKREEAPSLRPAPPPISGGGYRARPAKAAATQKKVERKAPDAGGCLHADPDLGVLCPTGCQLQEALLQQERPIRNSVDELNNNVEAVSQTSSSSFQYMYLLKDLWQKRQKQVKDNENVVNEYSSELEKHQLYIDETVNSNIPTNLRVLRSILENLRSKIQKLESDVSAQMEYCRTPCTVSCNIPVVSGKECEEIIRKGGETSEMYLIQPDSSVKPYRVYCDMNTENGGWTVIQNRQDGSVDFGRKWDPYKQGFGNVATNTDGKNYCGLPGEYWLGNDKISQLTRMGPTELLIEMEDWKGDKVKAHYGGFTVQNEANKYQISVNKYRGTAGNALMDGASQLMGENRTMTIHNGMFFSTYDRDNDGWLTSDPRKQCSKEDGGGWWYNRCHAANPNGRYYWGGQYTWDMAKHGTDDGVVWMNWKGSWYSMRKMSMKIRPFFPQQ
Sequence of Human fibrinogen (human) (P02679 other isoform, or with tags, fused parts or gaps, chain 3 of 3, further chain): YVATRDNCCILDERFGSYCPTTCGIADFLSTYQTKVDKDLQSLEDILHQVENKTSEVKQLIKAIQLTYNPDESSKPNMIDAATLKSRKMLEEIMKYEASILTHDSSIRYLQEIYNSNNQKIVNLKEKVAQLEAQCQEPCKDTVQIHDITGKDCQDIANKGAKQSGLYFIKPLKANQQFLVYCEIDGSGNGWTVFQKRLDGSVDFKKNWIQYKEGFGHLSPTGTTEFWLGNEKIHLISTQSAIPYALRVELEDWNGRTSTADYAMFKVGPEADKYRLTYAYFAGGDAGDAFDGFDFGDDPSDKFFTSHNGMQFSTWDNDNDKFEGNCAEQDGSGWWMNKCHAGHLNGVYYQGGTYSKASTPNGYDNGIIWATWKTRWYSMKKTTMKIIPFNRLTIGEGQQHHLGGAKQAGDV
Sequence of Recombinant fibronectin fragment, residues 1266–1908 (extra domain B plus type III modules 8–13 and the initial region of module 14) (P02751 1266-1908): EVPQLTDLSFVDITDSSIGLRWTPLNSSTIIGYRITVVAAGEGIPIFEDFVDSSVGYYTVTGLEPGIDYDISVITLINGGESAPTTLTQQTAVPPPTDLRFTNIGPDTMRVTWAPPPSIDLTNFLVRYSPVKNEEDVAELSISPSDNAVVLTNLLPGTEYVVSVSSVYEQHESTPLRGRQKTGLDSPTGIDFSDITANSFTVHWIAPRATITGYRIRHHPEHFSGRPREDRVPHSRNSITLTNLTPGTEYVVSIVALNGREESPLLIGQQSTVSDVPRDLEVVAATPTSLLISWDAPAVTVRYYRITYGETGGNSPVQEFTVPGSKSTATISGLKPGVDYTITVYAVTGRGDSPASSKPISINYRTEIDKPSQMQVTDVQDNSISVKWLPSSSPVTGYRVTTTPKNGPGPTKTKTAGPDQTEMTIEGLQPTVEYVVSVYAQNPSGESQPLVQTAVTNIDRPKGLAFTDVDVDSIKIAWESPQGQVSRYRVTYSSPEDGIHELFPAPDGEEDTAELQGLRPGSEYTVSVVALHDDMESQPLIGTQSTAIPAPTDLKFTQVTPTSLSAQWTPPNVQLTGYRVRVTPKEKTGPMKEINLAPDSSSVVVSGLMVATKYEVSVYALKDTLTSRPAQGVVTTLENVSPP
Sequence of Mouse cytokeratin 10 C-terminal tail region (MK10_(454–570)) (mouse) (P02535 454-570): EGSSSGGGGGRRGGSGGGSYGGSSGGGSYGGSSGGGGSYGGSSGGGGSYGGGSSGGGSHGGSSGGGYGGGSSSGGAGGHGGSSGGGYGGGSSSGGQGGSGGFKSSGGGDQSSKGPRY
Sequence of Mouse cytokeratin 10 (residues 1–570) (mouse) (P02535 whole entry, the tested form may be a part): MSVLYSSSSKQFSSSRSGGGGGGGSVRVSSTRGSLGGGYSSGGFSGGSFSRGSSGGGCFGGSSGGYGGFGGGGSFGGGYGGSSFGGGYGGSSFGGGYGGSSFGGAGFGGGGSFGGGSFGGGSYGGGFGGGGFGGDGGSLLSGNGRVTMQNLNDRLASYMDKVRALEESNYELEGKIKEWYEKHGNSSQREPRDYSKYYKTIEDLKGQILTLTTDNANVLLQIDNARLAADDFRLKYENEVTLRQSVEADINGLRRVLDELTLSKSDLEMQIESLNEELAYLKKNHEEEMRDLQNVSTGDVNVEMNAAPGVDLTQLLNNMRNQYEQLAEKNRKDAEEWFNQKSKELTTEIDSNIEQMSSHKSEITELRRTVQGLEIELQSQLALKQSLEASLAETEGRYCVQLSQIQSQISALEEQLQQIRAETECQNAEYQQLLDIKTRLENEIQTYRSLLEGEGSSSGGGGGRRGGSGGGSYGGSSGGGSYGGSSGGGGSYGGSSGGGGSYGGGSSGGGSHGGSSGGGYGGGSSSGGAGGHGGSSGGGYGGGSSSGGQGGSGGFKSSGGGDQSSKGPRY

For “SpsD_(167–519), N2N3 subdomains of the A domain of SpsD from S. pseudintermedius strain 326 F288A”, the response in assay [1] turned out to be 0.97 A490; in assay [2], 0.11 A490; in the assay with Human plasma fibronectin, 1.6 A490; in assay [3], 0.67 A490.

“SpsD_(167–519), N2N3 subdomains of the A domain of SpsD from S. pseudintermedius strain 326 (domain or fragment)”: the Kd in assay [4] was 840 nM; in assay [9] it was 1020 nM; in assay [10] it was 2160 nM; in assay [11] it was 341 nM; with Human fibrinogen (human), 360 nM. Besides, the concentration for a half-maximal effect (EC50) in assay [5] turned out to be 1200 nM; in assay [6], 1020 nM; in [7] it was 2210 nM; in assay [8] it was 1970 nM; in assay [12], 320 nM.

“SpsD_(37–519), A domain (N1N2N3 region) of SpsD from S. pseudintermedius strain 326 (domain or fragment)”: the equilibrium dissociation constant (Kd) was determined as 906 nM in assay [4]; 1200 nM in assay [9]; 2350 nM in [10]; 367 nM in assay [11]; 380 nM with Human fibrinogen (human).

The values are drawn from PMC3689669.
